± gives the uncertainty stated by the source.
Test: protein stability index of a GFP-peptide fusion (yeast GPS) (PSI 1-4); higher = more stable; sorted into four equal gates, so the index is relative within each strain
Method in brief: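 Plasmids in a pooled yeast library fused tiled 17-residue yeast protein peptides downstream of GFP and also expressed Cherry. Mid-log cultures grown without leucine were sorted into four equal gates by GFP/Cherry fluorescence ratio. Each gate's plasmids were PCR-amplified and Illumina-sequenced, and reads were matched to strains by barcodes. The protein stability index is derived by multiplying each gate's read frequency by its gate number and summing the results.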

Sequence	protein stability index (doa10∆)	protein stability index (pdr5∆)	protein stability index (san1∆)	protein stability index (ubr1∆)
NALDKLRNNLNSLIEEI [YCG1]	3.22 ± 0.12	3.26 ± 0.1	2.27 ± 0.21	3.08 ± 0.092
IYGVEWLIEGKLYVDAV [YDL116W/NUP84]	–	1.2 ± 0.082	–	–
SNQLISNYAASNSMDRS [SWI1]	3.11 ± 0.18	3.19 ± 0.15	3.27 ± 0.12	3.09 ± 0.12
HVEKERASTELSQSRIK [YIL149C/MLP2]	3.01 ± 0.089	2.93 ± 0.066	3.12 ± 0.095	3.1 ± 0.074
SVGTDPMPIITFLSEWG [RPB2]	2.7 ± 0.1	1.99 ± 0.057	1.57 ± 0.094	2.22 ± 0.062
TANATANVNASAMPAPY [DSN1]	3.11 ± 0.042	3.17 ± 0.037	3.083 ± 0.029	3.1 ± 0.034
NETIIDNFSPHQNVIIG [SMC3]	–	2.56 ± 0.17	2.29 ± 0.13	–
SEIKQQINKAQILENYN [YJL039C/NUP192]	2.94 ± 0.089	3.17 ± 0.069	2.73 ± 0.091	3.11 ± 0.057
REGLIDTAVKTAETGYI [RPO21]	1.13 ± 0.058	1.37 ± 0.099	1.23 ± 0.18	1.13 ± 0.051
RDKKEKKQAQKQTKLRK [SMB1]	3.43 ± 0.072	3.53 ± 0.072	3.25 ± 0.076	3.4 ± 0.045
ALRALARSGLRIGRIED [RPS14A]	–	2.12 ± 0.096	2.33 ± 0.1	2.01 ± 0.071
HSKFRSSSGNTWSLILN [YML031W/NDC1]	2.75 ± 0.1	2.72 ± 0.099	3.15 ± 0.078	3.12 ± 0.077
TDAMTESQPKQTGTRRN [MCD1]	3.04 ± 0.12	3.35 ± 0.12	3.2 ± 0.068	3.09 ± 0.061
DKTLRLWDVATGETYQR [ASC1]	3 ± 0.23	3.36 ± 0.16	2.18 ± 0.19	3.42 ± 0.091
SEENIGSGLLKLSEIIL [SWI1]	3.2 ± 0.074	3.02 ± 0.066	2.92 ± 0.048	3.37 ± 0.06
WPTTHKYPLGHFVRDLG [DIS3]	2.46 ± 0.063	2.58 ± 0.086	3.07 ± 0.08	2.49 ± 0.11
AALDLSHTQNIGHLIKT [SMC2]	2.88 ± 0.083	2.47 ± 0.063	2.27 ± 0.087	2.72 ± 0.046
LRWFELKPKLYYEQFRP [SIR3]	3.21 ± 0.074	2.98 ± 0.067	2.71 ± 0.077	3 ± 0.047
LSNFNADINLEESIRES [SIR3]	3.16 ± 0.12	2.95 ± 0.12	2.75 ± 0.24	3.4 ± 0.094
HSFEDAHTPMLQMYSKI [FAS1]	2.75 ± 0.06	3.03 ± 0.086	2.82 ± 0.096	2.84 ± 0.076
MALKKNTHNKSTKRVTK [POP7]	2.71 ± 0.1	2.73 ± 0.11	2.82 ± 0.053	2.84 ± 0.06
INFERIDEVFSWYLNTF [GRR1]	2.22 ± 0.058	1.91 ± 0.044	2.51 ± 0.1	1.82 ± 0.051
HLAICLDIINPGSVEEV [YDL116W/NUP84]	2.66 ± 0.098	2.77 ± 0.089	2.46 ± 0.13	3.45 ± 0.088
LFHFEEDEGEELTDEYL [PRP8]	3.52 ± 0.14	3.01 ± 0.09	3.44 ± 0.06	3 ± 0.12
ELDTASRILKAQSRNVE [YGR119C/NUP57]	2.35 ± 0.055	2.34 ± 0.063	2.03 ± 0.077	2.43 ± 0.056
LNVQVWHIEETGEWFSS [ITC1]	1.83 ± 0.051	2.03 ± 0.05	2.39 ± 0.059	2.41 ± 0.043
VSDHLDAIYRELTKNPN [SMC1]	2.87 ± 0.23	–	–	–

Sequence	protein stability index (doa10∆)	protein stability index (pdr5∆)	protein stability index (san1∆)	protein stability index (ubr1∆)
DLTGSEPIKEIIDNWEK [FAS1]	–	2.79 ± 0.15	–	3.07 ± 0.16
RSLVREIAGLSPYERRL [RPL36A]	2.86 ± 0.13	3.5 ± 0.2	2.78 ± 0.12	2.82 ± 0.11
VQDALLTNQLYKNHELL [SNF2]	3.19 ± 0.068	3.1 ± 0.072	3.08 ± 0.044	3.14 ± 0.061
NSNQQQNPKLFQTIFSK [SIN4]	1.98 ± 0.093	2.19 ± 0.069	3.11 ± 0.1	2.42 ± 0.082
SNYDWLFQLLNALTVGD [RPN9]	2.34 ± 0.076	2.52 ± 0.075	2.2 ± 0.083	2.56 ± 0.048
DIEIVRVNKNAPAVELH [FAS2]	2.87 ± 0.061	3.08 ± 0.064	3.24 ± 0.091	2.96 ± 0.049
PGHEMEDFLDKSYYLNT [AAR2]	3.29 ± 0.07	3.1 ± 0.076	2.81 ± 0.065	3.11 ± 0.04
SPASGIVDKYIGESARI [RPT4]	2.95 ± 0.27	2.84 ± 0.18	2.45 ± 0.16	–
APTPAAPGASVPATAAP [SWI1]	2.93 ± 0.068	3.05 ± 0.054	3.11 ± 0.042	3.21 ± 0.05
YPMMHQVRNQVFMLDTK [RGR1]	2.25 ± 0.08	2.35 ± 0.08	2.3 ± 0.081	2.75 ± 0.068
PVPSDSTRKKGGRRGRR [RPS14B]	3.22 ± 0.092	3.45 ± 0.074	3.31 ± 0.069	3.27 ± 0.071
IRALQPKLKEGALHFVQ [YIL149C/MLP2]	2.77 ± 0.074	2.06 ± 0.077	2.17 ± 0.068	2.69 ± 0.071
EDEEKILDNTENYDDTE [DSN1]	3.37 ± 0.088	3.33 ± 0.078	3.4 ± 0.058	3.44 ± 0.072
PEYAKVGDFLLQYANNA [SIN4]	2.4 ± 0.085	2.55 ± 0.069	2.5 ± 0.066	1.97 ± 0.044
SIKEHSTTMDGANDLGF [MED1]	2.53 ± 0.14	2.8 ± 0.073	2.15 ± 0.28	2.86 ± 0.09
AALKKTRKAARPQKLRA [RPL6A]	2.96 ± 0.071	3.09 ± 0.05	2.97 ± 0.043	3.16 ± 0.055
FLKKVMDTIQDKLINDV [ECM29]	3.08 ± 0.16	3.58 ± 0.2	2.95 ± 0.2	3.34 ± 0.15
VEAQSHRLTLEDPVTVE [PRE6]	3.23 ± 0.15	3.88 ± 0.25	–	–
ESPVDVQSQVDSSSVSE [FAS1]	3.11 ± 0.06	3.3 ± 0.073	3.14 ± 0.051	3.23 ± 0.042
LVGEYWEQLKITVVPVV [QCR6]	1.38 ± 0.26	–	–	–
RGKNEIIQNAQRDAVTL [RPO21]	3.3 ± 0.067	2.99 ± 0.078	3.23 ± 0.064	3.04 ± 0.066
GSPQMLANEERLSNEMH [RGR1]	2.9 ± 0.074	2.95 ± 0.071	3.39 ± 0.051	2.93 ± 0.054
TIANSIILHFANFGEIL [YMR153W/NUP53]	2.15 ± 0.055	2.38 ± 0.054	2.23 ± 0.062	2.27 ± 0.062
SLWRRTVYSLSQQAGLD [YDL116W/NUP84]	1.9 ± 0.12	2.39 ± 0.28	1.78 ± 0.27	2.26 ± 0.08
LVIKSGKYTLGYKSTVK [RPL30]	2.75 ± 0.079	2.96 ± 0.061	2.5 ± 0.079	2.87 ± 0.05
AIGCIERSDLLPYLSDT [YJR042W/NUP85]	2.96 ± 0.095	2.96 ± 0.098	2.8 ± 0.075	3.06 ± 0.13
PSTSSNMDVGNPRKRKA [GAL11]	2.65 ± 0.18	2.25 ± 0.12	2.75 ± 0.12	3.27 ± 0.088

Sequence	protein stability index (doa10∆)	protein stability index (pdr5∆)	protein stability index (san1∆)	protein stability index (ubr1∆)
LNDTTEKSKALESEIAS [SMC2]	3.53 ± 0.19	3.34 ± 0.14	3.43 ± 0.086	3.18 ± 0.086
KEDSTIQDSNGDVKNME [SWI3]	3.09 ± 0.11	3.38 ± 0.087	2.71 ± 0.093	3.17 ± 0.058
IIVPDLIELKSDLLVAP [YML103C/NUP188]	1.65 ± 0.052	1.8 ± 0.056	1.95 ± 0.094	1.69 ± 0.059
ELTDEYLAENPDPNFEN [PRP8]	3.45 ± 0.077	3.16 ± 0.076	3.36 ± 0.077	3.32 ± 0.053
AAIHAKRVTIQKKDIKL [HHT1]	2.92 ± 0.086	3.04 ± 0.12	3.14 ± 0.091	3.1 ± 0.075
LFPEQQTKEIKTERVED [RPL6B]	3.55 ± 0.074	3.29 ± 0.079	3.46 ± 0.061	3.38 ± 0.063
NKKSEQALDISKKGKPT [SRP72]	3.1 ± 0.1	3.02 ± 0.071	2.81 ± 0.061	3.04 ± 0.073
FNTNSSFTPSTVPNINF [YOR098C/NUP1]	2.48 ± 0.04	2.42 ± 0.032	2.54 ± 0.04	2.77 ± 0.029
QLASQLVDLKKELAELK [RPL35A]	3.37 ± 0.26	3.68 ± 0.27	3.21 ± 0.066	3.35 ± 0.078
VASRHPSESEHPIRVLM [YDL116W/NUP84]	–	3 ± 0.25	2.9 ± 0.23	–
DIIMNPHGFPSRMTVGK [RET1]	2.67 ± 0.056	2.83 ± 0.076	2.79 ± 0.049	2.71 ± 0.065
IIRHEKELEPWDLQLQE [SMC4]	3.28 ± 0.15	2.82 ± 0.13	–	3.47 ± 0.16
ESLYEPNLEPEDLFETI [PUP3]	3.27 ± 0.12	3.09 ± 0.13	2.99 ± 0.11	3.01 ± 0.078
KKGESEKDASGKPSFVF [YOR098C/NUP1]	2.19 ± 0.066	2.32 ± 0.1	2.32 ± 0.15	2.23 ± 0.073
DNSEYSRNGDFPRTRFE [RPN10]	3.13 ± 0.2	3.12 ± 0.22	3.45 ± 0.16	3.49 ± 0.17
KHEEIDTKNLYVIKALQ [RPS10A]	1.6 ± 0.085	2.02 ± 0.078	1.64 ± 0.12	1.46 ± 0.077
GNKALEDEEEFSIFNYF [RPC34]	3.21 ± 0.13	3.37 ± 0.14	–	–
DVPSEDDPTQLVSRGGC [RPO21]	3.61 ± 0.28	3.06 ± 0.15	2.97 ± 0.21	3.01 ± 0.15
DEGLLNMVSLRGRNDTL [GRR1]	2.55 ± 0.15	2.49 ± 0.14	2.51 ± 0.097	2.83 ± 0.17
ILVKRYSIEMKPYSGKL [ECM29]	1.58 ± 0.048	1.76 ± 0.049	1.79 ± 0.073	2.43 ± 0.044
SLKLENSDLEGKIRGVE [SMC2]	3.23 ± 0.086	3.37 ± 0.064	3.37 ± 0.061	3.21 ± 0.05
SAKPSQIPTVSSPLGFE [SIR4]	3.14 ± 0.064	2.98 ± 0.058	2.85 ± 0.068	3.03 ± 0.047
SAGDDGKVRLWKATYSN [YGL100W/SEH1]	2.74 ± 0.061	2.89 ± 0.089	2.74 ± 0.06	3 ± 0.058
DMATGSNDTTAFNDSCV [SRB8]	2.73 ± 0.05	3.07 ± 0.06	3.14 ± 0.045	2.86 ± 0.037
NGGDKELEMIGGTNEDD [YCS4]	3.25 ± 0.22	2.79 ± 0.21	2.46 ± 0.22	3.05 ± 0.27
